Assay [1] addresses T1, Canine IL4R (extracellular domains produced by 293 cells; Examples 16-19) (canine, biotinylated).
T1 construct: also called biotinylated canine IL4R
T1 chain: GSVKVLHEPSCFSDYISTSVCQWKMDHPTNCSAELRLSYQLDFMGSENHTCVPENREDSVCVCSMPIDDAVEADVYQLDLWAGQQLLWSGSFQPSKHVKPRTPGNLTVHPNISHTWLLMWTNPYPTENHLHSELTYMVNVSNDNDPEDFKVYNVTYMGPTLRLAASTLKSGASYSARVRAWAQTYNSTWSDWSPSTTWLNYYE
Put plainly: BLI (ForteBio OctetRed): biotinylated canine IL4R on streptavidin tip. The protocol: The four mouse antibodies were purified from the hybridoma cell cultures and their affinities to canine IL4R were measured using biosensor (ForteBio OctetRed). Biotinylated canine IL4R was bound to the streptavidin sensor tip. The Kds of the 4 candidates were all less than 10 nM.
(In general: Biolayer interferometry detects binding as a change in optical thickness at a sensor tip.)

Assay [2] has as its target Human IL4R-ECD_C-HuFc_His6 (processed) (human). In words: Western blot. Background: Immunoblotting shows a protein as a band on a membrane.
Assay [3] has as its target Canine IL4R-ECD_C-HuFc_His6 (processed) (canine). Put plainly: Western blot.
For assay [4], the target named is T1, Canine IL4R (extracellular domains …). In words: BLI (ForteBio OctetRed). From the text:
DNA sequences encoding a chimeric antibody were designed for a fusion of murine VH and murine VL to canine constant heavy chain IgG-B and canine constant light chain (kappa). The nucleotide sequences were synthesized chemically and inserted into an expression vector suitable for transfection into a CHO host cell. After transfection into CHO cells, the light chain or heavy chain protein or both were secreted from the cell. All four chimeric canine IgG-B were purified by single step Protein A column chromatography.

Assay [5] shares this target. In words: method not stated (binding affinity to canine IL4R).
In assay [6] the target is T2, Canine IL4R-ECD_C-His6 (processed) (canine, biotinylated through amine chemistry in the ELISA and Octet assays).
T2 chain: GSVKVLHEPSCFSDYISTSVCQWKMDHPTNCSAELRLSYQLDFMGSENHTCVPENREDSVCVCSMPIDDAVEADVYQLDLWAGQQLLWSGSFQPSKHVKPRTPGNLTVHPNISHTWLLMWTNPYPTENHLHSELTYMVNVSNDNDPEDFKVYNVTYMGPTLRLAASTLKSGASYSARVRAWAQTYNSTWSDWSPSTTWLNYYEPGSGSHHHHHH
Put plainly: BLI (Octet): biotinylated canine IL4R-ECD_C-His6 on streptavidin tips, 1:1 model. The protocol:
The binding analysis was performed using an Octet Biosensor as follows. Briefly, canine IL4R-ECD_C-His6 (SEQ ID NO: 107) was biotinylated through amine chemistry. The free unreacted biotin was removed by extensive dialysis. Biotinylated canine IL4R-ECD_C-His6 was captured on streptavidin sensor tips. The association of either Clone B or I antibody and canine IL4R-ECD_C-His6 (25 μg/mL) was monitored for 600 seconds. Dissociation was monitored for 600 seconds. A buffer only blank curve was subtracted to correct for any drift. The data were fit to a 1:1 binding model using ForteBio™ data analysis software to determine the kₒₙ, koff, and the Kd. The buffer for dilutions and all binding steps was 20 mM phosphate, 150 mM NaCl, pH 7.2.

Assay [7] deals with Canine IL4R-ECD_C-HuFc_His6 (processed) (canine). In words: BLI (Octet): canine IL4R-ECD_C-HuFc_His6 on anti-human Fc tips. The protocol: An alternative binding assay was performed also using an Octet Biosensor. Canine IL4R-ECD_C-HuFc_His6 (SEQ ID NO: 109) was captured on anti-human Fc-bound sensor tips. The association of either Clone B or I antibody and canine IL4R-ECD_C-HuFc_His6 was monitored for 600 seconds. Dissociation was monitored for 600 seconds. The buffer for dilutions and all binding steps was 20 mM phosphate, 150 mM NaCl, pH 7.2. […] In addition, amine conjugation may affect the affinity of canine IL4R-ECD_C-His6 to interact with Clone B and I antibodies.

Experimental findings from patent US20220049002A1 (KINDRED BIOSCIENCES, published 2022) are described below.

Where a chain is given by its changes, count along the chain named.

Human IL4R-ECD_C-HuFc_His6 (processed) (human), sequence (chain, as listed by the source limits assumed): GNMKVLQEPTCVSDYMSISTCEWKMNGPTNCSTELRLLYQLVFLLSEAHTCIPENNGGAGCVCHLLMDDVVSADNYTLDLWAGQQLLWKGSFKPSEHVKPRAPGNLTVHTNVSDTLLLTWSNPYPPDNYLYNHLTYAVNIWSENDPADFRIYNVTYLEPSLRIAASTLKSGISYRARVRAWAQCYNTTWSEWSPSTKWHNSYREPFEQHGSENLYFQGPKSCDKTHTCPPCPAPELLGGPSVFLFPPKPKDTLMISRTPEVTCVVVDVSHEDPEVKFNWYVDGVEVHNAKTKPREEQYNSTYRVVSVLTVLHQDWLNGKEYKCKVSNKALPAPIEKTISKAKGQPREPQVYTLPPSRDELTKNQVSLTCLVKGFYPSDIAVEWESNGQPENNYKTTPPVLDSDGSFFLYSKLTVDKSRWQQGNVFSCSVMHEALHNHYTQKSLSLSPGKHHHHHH

B1: M3 mouse monoclonal antibody (anti-canine IL4R) (antibody, V domains shown)
VH: QVQLKESGPGLVAPSQSLSITCTVSGFSLSRYSVHWVRQPPGKGLEWLGMIWGGGSTDYNSVFKSRLSISKDNSKSQVFLKMNSLQTDDTAMYYCARTYRGYALDYWGQGTSVTVSS
VL: DIQMTQTTSSLSASLGDRVTISCRASQDISNYLNWYQQKPDGTVKLLIYYTSRLQSGVPSRFSGSGSGTDYCLTISNLEQEDIATYFCQQANTLPLTFGSGTKLELK
notes: Mouse antibody purified from hybridoma culture; also called Clone M3
What is called Kd is the constant that tells how readily two partners part at equilibrium. Molecule B1 had a Kd in assay [1] of less than 10 nM. For the same molecule, the binding result in assay [2] is “no binding”; in assay [3] it was “binds”.

B2: M5 mouse monoclonal antibody (anti-canine IL4R) (antibody, V domains shown)
VH: B1 VH
VL: B1 VL
notes: Mouse antibody purified from hybridoma culture; also called Clone M5
B2 gave an equilibrium dissociation constant (Kd) in assay [1] of less than 10 nM.

B3: Murine-canine chimeric M5 antibody (canine IgG-B, canine kappa) (antibody, V domains shown)
VH: B1 VH
VL: B1 VL
notes: Murine VH and VL fused to canine constant heavy chain IgG-B and canine constant light chain (kappa); also called chimeric canine IgG-B (M5)
As for B3, the equilibrium dissociation constant (Kd) in assay [4] is less than 10 nM.

B4: Murine-canine chimeric M3 antibody (canine IgG-B, canine kappa) (antibody, V domains shown)
VH: B1 VH
VL: B1 VL
notes: Murine VH and VL fused to canine constant heavy chain IgG-B and canine constant light chain (kappa); also called chimeric canine IgG-B (M3)
Take B4: in assay [4], the Kd was less than 10 nM.

B5: Caninized Clone M3 antibody, variable HC v1 / variable LC v1 (variant canine IgG-B C1q-, CD16-; canine kappa) (antibody, V domains shown)
VH: EVQLVESGGDLVKPAGSLRLSCTVSGFSLSRYSVHWVRQAPGKGLEWLGMIWGGGSTDYNSVVKGRFTISRDNAKNTVYLQMNSLRAEDTAMYYCARTYRGYALDYWGQGTLVTVSS
VL: DIVMTQTPLSLSVSPGEPASISCRASQDISNYLNWYLQKAGQSPRLLIYYTSRLQSGVPDRFSGSGSGTDFTLRIGRVEAEDAGIYFCQQANTLPLTFGQGTRLEVRR
notes: also called caninized M3 (HC v1)
Take B5: the Kd in assay [5] was no more than 1 nM.

B6: Caninized Clone M3 antibody, variable HC v2 / variable LC v1 (variant canine IgG-B C1q-, CD16-; canine kappa) (antibody, V domains shown)
VH: ELTLQESGPGLVKPSQTLSLTCTVSGFSLSRYSVHWIRQPRGRGLELLGMIWGGGSTDYNPAFQGRISITADTAKNQFSLQLSSMTTEDTAVYYCARTYRGYALDYWGQGTLVTVSS
VL: B5 VL
notes: also called caninized M3 (HC v2)
With B6, in assay [5], the Kd is no more than 1 nM.

B7: M8 mouse monoclonal antibody (anti-canine IL4R) (antibody, V domains shown)
VH: QVQLQQSGPELVKPGALVKISCKASGYTFTSYDINWVKQRPGQGLEWIGWIYPGDGSTKYNEKFKGKATLTADKSSSTAYMQLSSLTSEDSAVYFCARSSFVVWGAGTTVTVSS
VL: DIQMTQSSSYLSVSLGGRVTITCKASDPINNWLAWYQQKPGNAPRLLISGATSLETGVPSRISGSGSGKDYSLSITSLQTEDIATYYCHQYWSIPYTFGGGTKLEIK
notes: Mouse antibody purified from hybridoma culture; also called Clone M8
Consider B7, for which the dissociation constant Kd in assay [1] is less than 10 nM. Further, the binding result in assay [2] is listed as “no binding”; in assay [3] it was “binds”.

B8: Murine-canine chimeric M8 antibody (canine IgG-B, canine kappa) (antibody, V domains shown)
VH: B7 VH
VL: B7 VL
notes: Murine VH and VL fused to canine constant heavy chain IgG-B and canine constant light chain (kappa); also called chimeric canine IgG-B (M8)
In assay [4], B8 had an equilibrium dissociation constant (Kd) of less than 10 nM.

B9: M9 mouse monoclonal antibody (anti-canine IL4R) (antibody, V domains shown)
VH: DVQLVESGGGLVQPGGSRKLSCAASGFTFSSFGMHWVRQAPEKGLEWVAYIRSDSSTIYYADTVKGRFTISRDNPKNTLFLQMTSLRSEDTAMYYCARSGYYGSFSLTYWGQGTLVTVSA
VL: EIVLTQSPTTMAASPGEKITITCSASSSVSSNYLHWYQQKPGFSPKLLIYRTSNLPSGVPARFFGSGSGTSYSLTIGTMEAEDVATYYCQQGSGMLTFGAGTKLELK
notes: Mouse antibody purified from hybridoma culture; also called Clone M9
Molecule B9 came in with a dissociation constant Kd in assay [1] of less than 10 nM. Also, the binding result in assay [2] is “no binding”; in assay [3] it was “binds”.

B10: Murine-canine chimeric M9 antibody (canine IgG-B, canine kappa) (antibody, V domains shown)
VH: B9 VH
VL: B9 VL
notes: Murine VH and VL fused to canine constant heavy chain IgG-B and canine constant light chain (kappa); also called chimeric canine IgG-B (M9)
With B10, the Kd in assay [4] is less than 10 nM.

B11: Caninized Clone M9 antibody, variable HC v1 / variable LC v1 (variant canine IgG-B C1q-, CD16-; canine kappa) (antibody, V domains shown)
VH: EVQLVESGGDLVKPGGSLRLSCAASGFTFSSFGMHWVRQAPGKGLEWVAYIRSDSSTIYYADAVKGRFTISRDNAKNTLYLQMNSLRAEDTAMYYCARSGYYGSFSLTYWGQGTLVTVSS
VL: DIMLTQTPLSLSVSPGEPASISCSASSSVSSNYLHWYLQKAGQSPRLLIYRTSNLPSGVPDRFSGSGSGTDFTLRIGRVEAEDAGIYYCQQGSGMLTFGQGTRLEVRR
notes: also called caninized M9 (HC v1)
As to B11, in assay [5], the equilibrium dissociation constant (Kd) is no more than 1 nM.

B12: Caninized Clone M9 antibody, variable HC v2 / variable LC v1 (variant canine IgG-B C1q-, CD16-; canine kappa) (antibody, V domains shown)
VH: B11 VH with A23V, E46Q
VL: B11 VL
notes: also called caninized M9 (HC v2)
Take B12: the equilibrium dissociation constant (Kd) in assay [5] is no more than 1 nM.

B13: Clone B antibody (mouse monoclonal anti-canine IL4R) (antibody, mouse IgG1, kappa, V domains shown)
VH: EVKLEESGPELVKPGASVKMSCKASGYTFTSYVMHWVKQKPGQGLEWIGYINPKNDGTFYNGKFKGKATLTSDKSSSTAYMELSSLTSEDSAVYYCAAFNYGIAYWGQGTLVTVSS
VL: IVLTQTPSSLSASLGERVSLTCRASQEISGYLSWLQQKPDGTIKRLIYAASTLDSGVPKRFSGSRSGSDFSLTISSLESEDFADYYCVQYASYPWTFGGGARLEIKR
notes: Mouse IgG; also called anti-IL4R-mAb Clone B
As to B13, the values for the Kd in assay [6] and in assay [7] were 2.03 nM and roughly 0.1 nM, respectively.
